Results on one molecule are retold here after patent US20230140200A1 (TRUSTEES OF COLUMBIA UNIVERSITY IN THE CITY OF NEW YORK, published 2023).

The target of one assay is T1, mouse TfR1 protein (mouse, UniProt Q62351 1-763).
T1 construct: whole, on cells; Endogenous protein in mouse tissue sections
Briefly: immunofluorescence on normal mouse liver frozen tissue sections.

Assay [1] addresses T2, human transferrin receptor protein 1 (TfR1) (human, UniProt P02786 1-760).
T2 construct: whole, on cells; Endogenous full-length protein of human cell lines; no recombinant construct was used; also called transferrin receptor 1; CD71
Put plainly: immunoprecipitation with 3F3-FMA from HT-1080 cell lysate and mass spectrometry; staining lost after siRNA knockdown of TfR1. The procedure:
The beads were used for mass spectrometry.
Trypsin digestion was performed overnight at 37° C. Supernatants were collected and dried down in a speed-vac, and peptides were dissolved in a solution containing 3% acetonitrile and 0.1% formic acid. Peptides were desalted with C18 disk-packed stage-tips. Desalted peptides were injected onto an EASY-Spray PepMap RSLC C18 50 cm×75 μm column (Thermo Scientific), which was coupled to the Orbitrap Fusion Tribrid mass spectrometer (Thermo Scientific). Peptides were eluted with a non-linear 110 min gradient of 5-30% buffer B (0.1% (v/v) formic acid, 100% acetonitrile) at a flow rate of 250 nl/min. The column temperature was maintained at a constant 50° C. during all experiments. Thermo Scientific™ Orbitrap Fusion™ Tribrid™ mass spectrometer was used for peptide MS/MS analysis. Survey scans of peptide precursors were performed from 400 to 1575 m/z at 120K FWHM resolution (at 200 m/z) with a 2×10⁵ ion count target and a maximum injection time of 50 ms. […] CID fragmentation was applied with 35% collision energy and resulting fragments were detected using the rapid scan rate in the ion trap. […]
The antigen of 3F3-FMA was identified using immunoprecipitation and mass spectrometry. […] Then magnetic beads were added and washed, and bead-immobilized proteins were analyzed by mass spectrometry. […]

T2 sequence (P02786 whole entry): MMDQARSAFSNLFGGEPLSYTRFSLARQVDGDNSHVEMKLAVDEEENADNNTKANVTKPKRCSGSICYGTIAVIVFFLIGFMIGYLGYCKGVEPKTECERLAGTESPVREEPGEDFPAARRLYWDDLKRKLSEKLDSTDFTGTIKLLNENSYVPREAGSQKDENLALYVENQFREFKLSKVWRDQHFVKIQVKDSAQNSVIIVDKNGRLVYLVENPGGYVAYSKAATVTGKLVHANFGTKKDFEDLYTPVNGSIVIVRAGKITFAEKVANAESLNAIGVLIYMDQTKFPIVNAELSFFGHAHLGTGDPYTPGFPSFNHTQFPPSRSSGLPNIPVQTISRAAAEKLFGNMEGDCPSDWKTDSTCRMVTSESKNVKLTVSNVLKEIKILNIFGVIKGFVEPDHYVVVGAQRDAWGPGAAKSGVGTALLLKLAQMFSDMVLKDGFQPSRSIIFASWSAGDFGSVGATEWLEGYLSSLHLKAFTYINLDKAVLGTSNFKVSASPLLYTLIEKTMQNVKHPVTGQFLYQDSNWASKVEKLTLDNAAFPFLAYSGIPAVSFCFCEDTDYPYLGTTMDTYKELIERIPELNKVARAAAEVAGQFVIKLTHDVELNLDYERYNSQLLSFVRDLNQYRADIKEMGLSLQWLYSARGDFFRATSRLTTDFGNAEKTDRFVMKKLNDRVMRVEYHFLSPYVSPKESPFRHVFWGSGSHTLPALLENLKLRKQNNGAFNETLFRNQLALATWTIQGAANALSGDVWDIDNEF
T1 sequence (Q62351 whole entry): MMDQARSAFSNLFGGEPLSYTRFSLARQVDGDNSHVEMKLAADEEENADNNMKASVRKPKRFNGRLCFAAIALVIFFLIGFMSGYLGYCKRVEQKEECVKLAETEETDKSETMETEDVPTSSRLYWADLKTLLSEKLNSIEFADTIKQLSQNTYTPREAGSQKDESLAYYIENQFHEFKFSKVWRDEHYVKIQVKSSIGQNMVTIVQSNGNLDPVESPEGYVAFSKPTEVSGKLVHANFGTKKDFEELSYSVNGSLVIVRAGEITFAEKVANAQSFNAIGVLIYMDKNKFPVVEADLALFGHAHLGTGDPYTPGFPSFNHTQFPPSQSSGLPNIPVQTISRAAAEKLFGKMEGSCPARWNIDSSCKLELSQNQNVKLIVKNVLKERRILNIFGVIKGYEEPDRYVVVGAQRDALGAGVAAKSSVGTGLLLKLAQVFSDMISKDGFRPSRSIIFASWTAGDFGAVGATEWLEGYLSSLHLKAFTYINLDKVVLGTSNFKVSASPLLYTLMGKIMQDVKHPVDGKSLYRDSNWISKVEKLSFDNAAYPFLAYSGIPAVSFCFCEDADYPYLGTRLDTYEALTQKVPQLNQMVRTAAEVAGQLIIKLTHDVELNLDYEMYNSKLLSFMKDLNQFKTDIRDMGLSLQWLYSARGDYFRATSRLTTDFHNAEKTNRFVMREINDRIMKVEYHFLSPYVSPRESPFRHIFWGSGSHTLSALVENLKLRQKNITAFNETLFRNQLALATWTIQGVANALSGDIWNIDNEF

B1: 3F3 anti-Ferroptotic Membrane Antibody (3F3-FMA) (antibody, V domains shown)
VH: EVLLQQSGTELVRPGALVKLSCKASGFNIQDLYIHWVKQRPEQGLEWIGWIDPETDNTIYDPKFQGKASITADTSSNTAYLQLSSLTSEDTAMYYCSTGLLQWYFDVWGAGTAVTVSS
VL: DIVMTQSPSSLAMSIGQKVTMRCKSSQSLLNSYNQKNCLAWYQQKPGQSPKLLLYFVSTRESGVPDRFIGSGSGTDFTLTISSVQAEDLADYFCQQHYSTPLTFGAGTKLELK
notes: the entries 1 and 2 should match these; also called mAb 3F3 FMA; clone FH3F3
As to B1, the binding result (with mouse TfR1 protein; in assay [1]) was “binds” in each case.
